Several values for one entry are separate records, joined by “and”; a condition that tells them apart may be missing. Equal entries are not always repeated.

Assay in all cases: cell-based or functional assay
One test has as its target mHTTex1-72Q-eGFP (human) (UniProt P42858).
Test [1] has as its target human α-synuclein protein (human).
Test [2] deals with human α-synuclein-GFP (human).

Sequence of UniProt P42858 (P42858 other isoform, or with tags, fused parts or gaps): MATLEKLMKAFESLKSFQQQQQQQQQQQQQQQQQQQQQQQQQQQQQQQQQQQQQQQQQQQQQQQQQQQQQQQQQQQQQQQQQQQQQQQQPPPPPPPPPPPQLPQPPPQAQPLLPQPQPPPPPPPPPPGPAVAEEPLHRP

Consider scFv-C4-hPEST-T436A, for which the soluble mHTTex1-72Q-GFP by western blot (EM48/GAPDH, normalized to EV-CON) (% relative to control) with mHTTex1-72Q-eGFP (human) fell in the range of 75 to 100.
In the case of scFv-C4-hPEST-E428A-E430A-E431A, the soluble mHTTex1-72Q-GFP by western blot (EM48/GAPDH, normalized to EV-CON) with mHTTex1-72Q-eGFP (human) is 50 to 75 % of control.
As for scFv-C4-hPEST, the soluble mHTTex1-72Q-GFP by western blot (EM48/GAPDH, normalized to EV-CON) (% relative to control) in the test with mHTTex1-72Q-eGFP (human) fell in the range of 75 to 100.
Consider scFv-C4-hPEST-S440A, for which the soluble mHTTex1-72Q-GFP by western blot (EM48/GAPDH, normalized to EV-CON) with mHTTex1-72Q-eGFP (human) was 25 % of control and 0 % of control.
The same measure, in the same setting: in the case of scFv-C4-hPEST-E444A it was 50 to 75 % of control.

B1: SS-435b-N77D-hP (VHH)
VHH: VQLVESGGGGLVQPGGSLRLSCVTPGGIFSDYAMGWYRQAPGKQRELVADITVSDTTRYSDPVKGRFTISRDNAKDMVYLQMNSLKPEDAAIYTCNAQKWEDRYGSSERYDYWGQGTQVTVSS
In test [1], B1 came in with a reduction of endogenous α-synuclein by western blot relative to SS-N77K-hP control, 3×SNCA cortical cultures of 40%.

B2: SS-PEN-DB1-PEST (VHH)
VHH: MEFGLSWLFLVAILKGVQGRQIKIWFQNRRMKWKKSRAEVQLQASGGGFVQPGGSLRLSCAASGFTSWEDTMGWFRQAPGKEREFVSAISFDANDLSDTSVYYADSVKGRFTISRDNSKNTVYLQMNSLRAEDTATYYCAVASFEILLYGESLHIYWGQGTQVTVSSAAAYPYDVPDYANPDFPPEVEEQDASTLPVSCAWESGMKRHRAACASASINV
The molecule B2 displayed a reduction of endogenous synuclein by western blot, 3×SNCA cortical cultures given conditioned media in test [1] of 30%.

B3: SS-PEN-N77D-PEST (VHH)
VHH: MEFGLSWLFLVAILKGVQGRQIKIWFQNRRMKWKKSRQVQLVESGGGGLVQPGGSLRLSCVTPGGIFSDYAMGWYRQAPGKQRELVADITVSDTTRYSDPVKGRFTISRDNAKDMVYLQMNSLKPEDAAIYTCNAQKWEDRYGSSERYDYWGQGTQVTVSSAHHSEDPAAAYPYDVPDYNPDFPPEVEEQDASTLPVSCAWESGMKRHRAACASASINV
In test [1], B3 showed a reduction of endogenous synuclein by western blot, 3×SNCA cortical cultures given conditioned media of 40% and a reduction of endogenous α-synuclein by western blot relative to SS-N77K-hP control, 3×SNCA cortical cultures of 40%. The molecule also showed a reduction of α-Syn˜eGFP by western blot, recipient ST14A cells given conditioned media in test [2] of 20%.

(Values after patent US20250326824A1.)
